Reference: doi:10.1101/2022.04.14.488403 (bioRxiv, 2022)

Columns and labels:
[1] = biological target: K5:I-E^k; assay: biomembrane force probe
[2] = biological target: human CD3γε ECD (human, UniProt P09693;P07766, biotin (BirA) on the C-terminal biotinylation sequence); assay: biomembrane force probe
[3] = biological target: mouse CD3γε ECD (Mus musculus (Mouse)., UniProt P11942;P22646, biotin (BirA) on the C-terminal biotinylation sequence); assay: micropipette adhesion frequency
Sequence of mouse CD3γε ECD (P11942 23-116, chain 1 of 2): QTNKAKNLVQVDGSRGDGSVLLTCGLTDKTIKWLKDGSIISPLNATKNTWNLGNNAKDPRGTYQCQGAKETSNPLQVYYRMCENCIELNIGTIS
Sequence of mouse CD3γε ECD (P22646 23-108, chain 2 of 2): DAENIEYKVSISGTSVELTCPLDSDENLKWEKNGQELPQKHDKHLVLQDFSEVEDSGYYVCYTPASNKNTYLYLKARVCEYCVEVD

Sequence of human CD3γε ECD (P09693 23-116, one chain of several): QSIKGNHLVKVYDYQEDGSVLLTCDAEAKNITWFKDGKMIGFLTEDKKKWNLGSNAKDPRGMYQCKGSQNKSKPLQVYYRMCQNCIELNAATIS

In the case of “2B4 TCR, wild type, fully assembled on the surface of T hybridoma cells (from UniProt P01849 1-136)”, the peak bond lifetime (at 15 pN) [1] is reported as 1.6 s.

B1: human CD3δε ECD (complex)
chain 1: FKIPIEELEDRVFVNCNTSITWVEGTVGTLLSDITRLDLGKRILDPRGIYRCNGTDIYKDKESTVQVHYRMCQSCVELDPATVA
chain 2: DGNEEMGGITQTPYKVSISGTTVILTCPQYPGSEILWQHNDKNIGGDEDDKNIGSDEDHLSLKEFSELEQSGYYVCYPRGSKPEDANFYLYLRARVCENCMEMD
modifications: biotin (BirA) on the C-terminal biotinylation sequence
B1: binds [2].

B2: 2C11 full-length mAb (anti-CD3ε, clone 145-2C11) (antibody, V domains shown)
VH: EVQLVESGGGLVQPGKSLKLSCEASGFTFSGYGMHWVRQAPGRGLESVAYITSSSINIKYADAVKGRFTVSRDNAKNLLFLQMNILKSEDTAMYYCARFDWDKNYWGQGTMVTVSS
VL: DIQMTQSPSSLPASLGDRVTINCQASQDISNYLNWYQQKPGKAPKLLIYYTNKLADGVPSRFSGSGSGRDSSFTISSLESEDIGSYYCQQYYNYPWTFGPGTKLEIK
B2: binds [3].
